According to publication PMC8420576 (2021):

B1: VHH antibody Re5D06, labeled with two PEG11-biotins (VHH)
VHH: QVQLVESGGGLVQPGGSLRLSCAASGITLDYYAIGWFRQAPGKEREGVSRIRSSDGSTNYADSVKGRFTMSRDNAKNTVYLQMNSLKPEDTAVYYCAYGPLTKYGSSWYWPYEYDYWGQGTQVTVSS
B2: VHH antibody Re9F06 (VHH)
VHH: QVQLVESGGGLVQAGGSLRLSCAASGRTFSNDALGWFRQAPRKEREFVAAINWNSGTYYADSVKGRFTISRDNAKNTVYLQMNSLKPEDTAVYSCAAASDYGLPREDFLYDYWGQGTQVTVSS

Tests used:
Assay in all cases: BLI
[1] = target: T1, SARS-CoV-2 RBD wt (GenScript Z03479) (SARS-CoV-2, UniProt P0DTC2 319-541)
[2] = target: T1, SARS-CoV-2 RBD wt (GenScript Z03479); remark: listed apart in the source
[3] = target: T2, SARS-CoV-2 Spike RBD (residues 334–527), C-terminal Avi-His6 tag, biotinylated (SARS-CoV-2, UniProt P0DTC2 334-527, biotin on the Avi-tag)
[4] = target: T2, SARS-CoV-2 Spike RBD (residues …); remark: listed apart in the source

Row | Binder | koff [1] [s⁻¹] | Kd [2] [nM] | koff [3] [s⁻¹] | Kd [4] [nM]
1 | B1 | 1.6e-06 | < 0.01 |  | 
2 | B2 |  |  | 0.00045 | 270
